Common to all, as to experiment: HPLC, Michaelis-Menten fit
Settings in all cases: 20 mM Tris-HCl pH 8.0, 30 °C, O2 as electron acceptor

Substrate in data set [1]: COc1cc(CO)ccc1O
The data set is classed as biochemical, Penicillium simplicissimum.

Substrate in data set [2]: CCCc1ccc(O)c(OC)c1
The data set is classed as biochemical, Penicillium simplicissimum.

Substrate in data set [3]: Oc1ccc(Cc2ccc(O)cc2)cc1
The data set is classed as biochemical, Penicillium simplicissimum.

Substrate in data set [4]: COCc1ccc(O)cc1
The data set is classed as biochemical, Penicillium simplicissimum.

Substrate in data set [5]: COc1cc(CO)ccc1O
The data set is classed as biochemical, Rhodococcus jostii.

Substrate in data set [6]: CCCc1ccc(O)c(OC)c1
The data set is classed as biochemical, Rhodococcus jostii.

Substrate in data set [7]: Oc1ccc(Cc2ccc(O)cc2)cc1
The data set is classed as biochemical, Rhodococcus jostii.

Substrate in data set [8]: COCc1ccc(O)cc1
The data set is classed as biochemical, Rhodococcus jostii.

B1: VAO (Penicillium simplicissimum) (protein)
chain: MSKTQEFRPLTLPPKLSLSDFNEFIQDIIRIVGSENVEVISSKDQIVDGSYMKPTHTHDPHHVMDQDYFLASAIVAPRNVADVQSIVGLANKFSFPLWPISIGRNSGYGGAAPRVSGSVVLDMGKNMNRVLEVNVEGAYCVVEPGVTYHDLHNYLEANNLRDKLWLDVPDLGGGSVLGNAVERGVGYTPYGDHWMMHSGMEVVLANGELLRTGMGALPDPKRPETMGLKPEDQPWSKIAHLFPYGFGPYIDGLFSQSNMGIVTKIGIWLMPNPRGYQSYLITLPKDGDLKQAVDIIRPLRLGMALQNVPTIRHILLDAAVLGDKRSYSSRTEPLSDEELDKIAKQLNLGRWNFYGALYGPEPIRRVLWETIKDAFSAIPGVKFYFPEDTPENSVLRVRDKTMQGIPTYDELKWIDWLPNGAHLFFSPIAKVSGEDAMMQYAVTKKRCQEAGLDFIGTFTVGMREMHHIVCIVFNKKDLIQKRKVQWLMRTLIDDCAANGWGEYRTHLAFMDQIMETYNWNNSSFLRFNEVLKNAVDPNGIIAPGKSGVWPSQYSHVTWKL
notes: synthetic gene, expressed and purified like BpfA (E. coli, Ni-NTA); contains flavin
B1: the Km in data set [1] stood at 140 ± 12.3 µM; in data set [2] it was 71.4 ± 11.6 µM; in data set [3], 205.6 ± 18.5 µM; in data set [4], 72.0 ± 7.1 µM. Moreover, the kcat in data set [1] was 6.0 ± 0.2 s⁻¹; in data set [2], 5 ± 0.02 s⁻¹; in data set [3] it was 0.05 ± 0.001 s⁻¹; in data set [4], 3.9 ± 0.009 s⁻¹. In addition, the kcat/Km is 42.9 b in data set [1], 70.4 b in data set [2], 0.2 b in data set [3] and 54.2 a in data set [4].

B2: EUGO (Rhodococcus jostii RHA1) (protein)
chain: MTRTLPPGVSDERFDAALQRFRDVVGDKWVLSTADELEAFRDPYPVGAAEANLPSAVVSPESTEQVQDIVRIANEYGIPLSPVSTGKNNGYGGAAPRLSGSVIVKTGERMNRILEVNEKYGYALLEPGVTYFDLYEYLQSHDSGLMLDCPDLGWGSVVGNTLDRGVGYTPYGDHFMWQTGLEVVLPQGEVMRTGMGALPGSDAWQLFPYGFGPFPDGMFTQSNLGIVTKMGIALMQRPPASQSFLITFDKEEDLEQIVDIMLPLRINMAPLQNVPVLRNIFMDAAAVSKRTEWFDGDGPMPAEAIERMKKDLDLGFWNFYGTLYGPPPLIEMYYGMIKEAFGKIPGARFFTHEERDDRGGHVLQDRHKINNGIPSLDELQLLDWVPNGGHIGFSPVSAPDGREAMKQFEMVRNRANEYNKDYAAQFIIGLREMHHVCLFIYDTAIPEAREEILQMTKVLVREAAEAGYGEYRTHNALMDDVMATFNWGDGALLKFHEKIKDALDPNGIIAPGKSGIWSQRFRGQNL
notes: as for B1
B2: the Km in data set [5] was found to be 89.6 ± 11.3 µM; in data set [6] it was 59.3 ± 0.7 µM; in data set [7], 185.1 ± 11.3 µM; in data set [8], 73.2 ± 1.5 µM. The kcat is 5.9 ± 0.3 s⁻¹ in data set [5], 4.8 ± 0.002 s⁻¹ in data set [6], 0.04 ± 0.003 s⁻¹ in data set [7] and 4.1 ± 0.01 s⁻¹ in data set [8]. Also, the kcat/Km was determined as 65.8 a in data set [5], 80.9 b in data set [6], 0.2 b in data set [7] and 56.0 a in data set [8].

These data come from article PMC12507022, “Widespread distribution of BpfA-mediated bisphenol F degradation among members of the Pseudomonadota and Actinomycetota” (The ISME Journal, 2025).
